Assay results taken from the supplement of paper PMC9112550, “Optimization of the antimicrobial peptide Bac7 by deep mutational scanning” (BMC Biology, 2022).

test system: Escherichia coli TOP10; assay: shrunken log2 fold change of peptide-encoding DNA abundance (4.5 h post-induction vs induction); higher = less antimicrobial activity (less host growth inhibition); conditions: time post-induction: 4.5 h; library: site-saturation at positions 5, 18, 19, 20
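Also: peptides expressed intracellularly from a pBAD plasmid library in pooled LB shake-flask culture, induced with 0.3% L-arabinose, DNA abundance read by NGS, three biological replicates, DESeq2 with apeglm shrinkage.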

Sequence	shrunken log2 fold change
RRIRFRPPRLPRPRPRPWTFPRP	-0.797
RRIRFRPPRLPRPRPRPWTNPRP	-0.289
RRIRFRPPRLPRPRPRPWTWPRP	0.0306
RRIRFRPPRLPRPRPRPWVLPRP	-0.0735
RRIRFRPPRLPRPRPRPWWQPRP	-0.0583
RRIRFRPPRLPRPRPRPWWWPRP	0.0474
RRIRFRPPRLPRPRPRPWYSPRP	-0.0415
RRIRFRPPRLPRPRPRPYAFPRP	-0.193
RRIRFRPPRLPRPRPRPYAQPRP	-0.533
RRIRFRPPRLPRPRPRPYAWPRP	-0.134
RRIRFRPPRLPRPRPRPYCMPRP	-0.929
RRIRFRPPRLPRPRPRPYCSPRP	-0.206
RRIRFRPPRLPRPRPRPYDQPRP	-0.0152
RRIRFRPPRLPRPRPRPYEEPRP	-0.221
RRIRFRPPRLPRPRPRPYESPRP	0.0128
RRIRFRPPRLPRPRPRPYFAPRP	-0.572
RRIRFRPPRLPRPRPRPYFMPRP	-1.02
RRIRFRPPRLPRPRPRPYFRPRP	-0.134
RRIRFRPPRLPRPRPRPYHWPRP	-0.208
RRIRFRPPRLPRPRPRPYIKPRP	-1.28
RRIRFRPPRLPRPRPRPYKCPRP	-0.208
RRIRFRPPRLPRPRPRPYKDPRP	-0.213
RRIRFRPPRLPRPRPRPYKIPRP	-0.462
RRIRFRPPRLPRPRPRPYLAPRP	-0.425
RRIRFRPPRLPRPRPRPYLLPRP	-1.11

Sequence	shrunken log2 fold change
RRIRFRPPRLPRPRPRPYPKPRP	-0.323
RRIRFRPPRLPRPRPRPYPPPRP	-0.665
RRIRFRPPRLPRPRPRPYQCPRP	-0.0374
RRIRFRPPRLPRPRPRPYQIPRP	-0.471
RRIRFRPPRLPRPRPRPYQKPRP	-1.08
RRIRFRPPRLPRPRPRPYQNPRP	-0.0547
RRIRFRPPRLPRPRPRPYRGPRP	-0.384
RRIRFRPPRLPRPRPRPYSDPRP	-0.298
RRIRFRPPRLPRPRPRPYTWPRP	-1.05
RRIRFRPPRLPRPRPRPYYCPRP	-0.74
RRIRFRPPRLPRPRPRPYYLPRP	-0.392
RRIRFRPPRLPRPRPRPYYVPRP	-0.14
RRIRGRPPRLPRPRPRPAAAPRP	2.36
RRIRGRPPRLPRPRPRPAAGPRP	1.18
RRIRGRPPRLPRPRPRPADKPRP	0.365
RRIRGRPPRLPRPRPRPADNPRP	-0.0713
RRIRGRPPRLPRPRPRPADTPRP	0.0689
RRIRGRPPRLPRPRPRPAEVPRP	0.31
RRIRGRPPRLPRPRPRPAEYPRP	-0.187
RRIRGRPPRLPRPRPRPAFIPRP	-0.177
RRIRGRPPRLPRPRPRPAHYPRP	0.447
RRIRGRPPRLPRPRPRPAIHPRP	0.164
RRIRGRPPRLPRPRPRPAINPRP	0.419
RRIRGRPPRLPRPRPRPAITPRP	0.721
RRIRGRPPRLPRPRPRPAKHPRP	0.209

Sequence	shrunken log2 fold change
RRIRGRPPRLPRPRPRPAMEPRP	1
RRIRGRPPRLPRPRPRPAMMPRP	0.51
RRIRGRPPRLPRPRPRPANVPRP	-0.126
RRIRGRPPRLPRPRPRPAPHPRP	0.95
RRIRGRPPRLPRPRPRPAPLPRP	0.893
RRIRGRPPRLPRPRPRPARCPRP	0.749
RRIRGRPPRLPRPRPRPASNPRP	0.375
RRIRGRPPRLPRPRPRPATCPRP	0.512
RRIRGRPPRLPRPRPRPATFPRP	0.326
RRIRGRPPRLPRPRPRPATGPRP	0.308
RRIRGRPPRLPRPRPRPATIPRP	0.138
RRIRGRPPRLPRPRPRPAVWPRP	0.71
RRIRGRPPRLPRPRPRPAWGPRP	0.268
RRIRGRPPRLPRPRPRPCCMPRP	0.474
RRIRGRPPRLPRPRPRPCEFPRP	0.0669
RRIRGRPPRLPRPRPRPCGQPRP	0.142
RRIRGRPPRLPRPRPRPCGTPRP	1.44
RRIRGRPPRLPRPRPRPCHAPRP	0.274
RRIRGRPPRLPRPRPRPCHSPRP	0.0222
RRIRGRPPRLPRPRPRPCIWPRP	0.208
RRIRGRPPRLPRPRPRPCKGPRP	-0.0939
RRIRGRPPRLPRPRPRPCKNPRP	0.397
RRIRGRPPRLPRPRPRPCLCPRP	0.655
RRIRGRPPRLPRPRPRPCLKPRP	0.213
RRIRGRPPRLPRPRPRPCMYPRP	0.013

Sequence	shrunken log2 fold change
RRIRGRPPRLPRPRPRPCNCPRP	0.155
RRIRGRPPRLPRPRPRPCNPPRP	-0.266
RRIRGRPPRLPRPRPRPCNTPRP	0.00375
RRIRGRPPRLPRPRPRPCNWPRP	0.101
RRIRGRPPRLPRPRPRPCPCPRP	-0.0469
RRIRGRPPRLPRPRPRPCPDPRP	0.359
RRIRGRPPRLPRPRPRPCPYPRP	0.0633
RRIRGRPPRLPRPRPRPCQKPRP	0.0649
RRIRGRPPRLPRPRPRPCRMPRP	0.0426
RRIRGRPPRLPRPRPRPCRNPRP	0.0316
RRIRGRPPRLPRPRPRPCSDPRP	0.0118
RRIRGRPPRLPRPRPRPCSHPRP	-0.112
RRIRGRPPRLPRPRPRPCSTPRP	1.14
RRIRGRPPRLPRPRPRPCSWPRP	0.19
RRIRGRPPRLPRPRPRPCYGPRP	-0.277
RRIRGRPPRLPRPRPRPCYSPRP	-0.0391
RRIRGRPPRLPRPRPRPDANPRP	1.99
RRIRGRPPRLPRPRPRPDDGPRP	-0.0284
RRIRGRPPRLPRPRPRPDDNPRP	0.484
RRIRGRPPRLPRPRPRPDGWPRP	1.34
RRIRGRPPRLPRPRPRPDHIPRP	0.199
RRIRGRPPRLPRPRPRPDHMPRP	0.0349
RRIRGRPPRLPRPRPRPDHYPRP	-0.203
RRIRGRPPRLPRPRPRPDKWPRP	0.243
RRIRGRPPRLPRPRPRPDKYPRP	-0.136

Sequence	shrunken log2 fold change
RRIRGRPPRLPRPRPRPDMMPRP	0.023
RRIRGRPPRLPRPRPRPDMVPRP	-0.0595
RRIRGRPPRLPRPRPRPDPCPRP	0.624
RRIRGRPPRLPRPRPRPDQNPRP	0.00612
RRIRGRPPRLPRPRPRPDSHPRP	0.0299
RRIRGRPPRLPRPRPRPDTTPRP	0.903
RRIRGRPPRLPRPRPRPDVIPRP	0.68
RRIRGRPPRLPRPRPRPDYKPRP	-0.0972
RRIRGRPPRLPRPRPRPDYWPRP	-0.027
RRIRGRPPRLPRPRPRPEEQPRP	-0.00213
RRIRGRPPRLPRPRPRPEFCPRP	1.23
RRIRGRPPRLPRPRPRPEFTPRP	0.74
RRIRGRPPRLPRPRPRPEGFPRP	1.56
RRIRGRPPRLPRPRPRPEGIPRP	-0.0235
RRIRGRPPRLPRPRPRPEILPRP	1.22
RRIRGRPPRLPRPRPRPEIQPRP	0.769
RRIRGRPPRLPRPRPRPEIVPRP	0.0103
RRIRGRPPRLPRPRPRPEKMPRP	0.59
RRIRGRPPRLPRPRPRPENHPRP	0.455
RRIRGRPPRLPRPRPRPEPLPRP	0.341
RRIRGRPPRLPRPRPRPEPPPRP	1.79
RRIRGRPPRLPRPRPRPEQEPRP	0.0952
RRIRGRPPRLPRPRPRPERLPRP	0.586
RRIRGRPPRLPRPRPRPERMPRP	0.251
RRIRGRPPRLPRPRPRPERPPRP	1.28

Sequence	shrunken log2 fold change
RRIRGRPPRLPRPRPRPERTPRP	1.21
RRIRGRPPRLPRPRPRPETCPRP	0.613
RRIRGRPPRLPRPRPRPETRPRP	0.109
RRIRGRPPRLPRPRPRPEVHPRP	0.141
RRIRGRPPRLPRPRPRPEWYPRP	0.243
RRIRGRPPRLPRPRPRPEYDPRP	0.0795
RRIRGRPPRLPRPRPRPEYNPRP	0.643
RRIRGRPPRLPRPRPRPFAGPRP	0.00108
RRIRGRPPRLPRPRPRPFAPPRP	1
RRIRGRPPRLPRPRPRPFCGPRP	0.224
RRIRGRPPRLPRPRPRPFDKPRP	-0.663
RRIRGRPPRLPRPRPRPFDNPRP	0.23
RRIRGRPPRLPRPRPRPFDTPRP	0.151
RRIRGRPPRLPRPRPRPFDYPRP	-0.145
RRIRGRPPRLPRPRPRPFHDPRP	-0.0838
RRIRGRPPRLPRPRPRPFITPRP	0.0604
RRIRGRPPRLPRPRPRPFLYPRP	-0.11
RRIRGRPPRLPRPRPRPFNMPRP	-1.07
RRIRGRPPRLPRPRPRPFPCPRP	-0.0294
RRIRGRPPRLPRPRPRPFPKPRP	0.0687
RRIRGRPPRLPRPRPRPFRVPRP	-0.149
RRIRGRPPRLPRPRPRPFSEPRP	0.144
RRIRGRPPRLPRPRPRPFTCPRP	-0.22
RRIRGRPPRLPRPRPRPFVGPRP	-0.26
RRIRGRPPRLPRPRPRPFVQPRP	0.0324
